A short description of the data set: soluble on expression in E. coli; label from the status in PepcDB or PDB records.
In the case of “MGSDKIHHHHHHMNFTMNFPGLKDTFITKVEEVGEIVRLYVEMERKVHRCPKCQKRTKKVHDYRIQKIKHLKWFERQTQIFYKRRRYVCACGKRFAENNSFVERYQRTSIEWNQAVAIRAIKGKTFKETAENYGSSATTIVRRFDQISSSEIRPVEELPAIIAIDEYKGDTKEGKYQLIIADAVTKEPLDILPNRYKRTIKDYLRRHGSKVQMVIMDMSPSFKAAVQEALGRPVIIADRFHFCRYIYWALDGVRRRVQKDFHAYDRKKCKRMKHVFHKENSRLTEEERWYLDRYLKMSTELQKAYELKEAYQDWFKRSKEIGATQIERVKKELKAIYKLVKNSGIPEMCRAIGTFENWQTEILNSFAYGYSNGFLEGINNSTKVLKRNAFGFRSYERFRAKILLTHKYKRIGVHIG”, the “soluble on expression in E. coli” value was “not soluble”.
Under “TPNEMGYLHVIENLTKKRMTPLRPPTEKEAFKGQLSAAVETIESDLEENGLDKYLESAEALLEKYSATDLAALLLKTVAKDPADAVPVKITPERPLPSNKKGFNKNGR” stands “not soluble”; under “MGSDKIHHHHHHMSLIERAADKLVKNDMNGFMPGSVSQHDSREGIGPDSLFSSDGVPGKKTGHGRIIKEEVGADRINKAADTKKTVKRIEVDLENLHRKGVVTLHHTKSEIAEQFRLIKRPLLANAFNPDSGVKNGNLIMVTSSLSGEGKSFCSLNLAMSIAMEMDHRVLLVDADVARPSIPATLGFSPEEPGLLDMLRDSQLSISDVMMKTNIKKLTLIPAGRRHTHATELLASQSMHSILVELAQRYHDRVVIFDSPPLLLTSEARVLASQMGQIVLVVEAERTTQQTVKEALQQIEACDVVNLIYNKARAHGSTEYYGYY”, “not soluble”; under “NVLYENQKQIANQFNKAISQIQESLTTTSTALGKLQDVVNQNAQALNTLVKQLSSNFGAISSVLNDILSRLDKVEAE”, “soluble”.
In the case of “SSNFSSERIRYAKWFLEHGFNIIPIDPESKKPVLKEWQKYSHEMPSDEEKQRFLKMIEEGYNYAIPGGQKGLVILDFESKEKLKAWIGESALEELCRKTLCTNTVHGGIHIYVLSNDIPPHKINPLFEENGKGIIDLQSYNSYVLGLGSCVNHLHCTTDKCPWKEQNYTTCYTLYNELKEISKVDLKSLLRFLAEKGKRLGITLSKTAKEWLEGKKEEEDTVVEFEELRKELVKRDSGKPVEKIKEEICTKSPPKLIKEIICENKTYADVNIDRSRGDWHVILYLMKHGVTDPDKILELLPRDSKAKENEKWNTQKYFVITLSKAWSVVKKYLEA”, the “soluble on expression in E. coli” value was “soluble”.
As for “MKKSLLGIISILSLTLLFSGCVDNSGAEEQAVLHAYVGAGMQMPMDEIAIEFEEKYGIKVEYDYSGSGALLSKIVASNQGDIFMPGDCSYVYQLQEKEMSTECSNVTKHIPVIAVQKGNPKNITGLSDLGQDDLELALGDSSISIGKLFTKILSKAETKGVNVTEAVNSNTVVTGATVKQVLLYVTEKNVDAAVVWSADAYENSDAVDIVPIESEYNIIKTVPISILSTTEDYDNAKLFYDFVNNEGKEIFEKHGFVALE”, the “soluble on expression in E. coli” value is “not soluble”.
“EVKQFNTYANNLAKIKQKVILMGLLTEAKLEQYKGLSVDEVEAQTEFSFQDAIYSLSPYEKLNYVEAVARKSLHQAEAYLSNAFNRQNAIMYFRSYTGSKLILERPIKALEGVKATFDVDWCKSNYSCVLAAWKEQLTDRVLFSLPFKTTYSDDMAISIMSPVYFQGELVGEFSEQLYLSSLYNEGKAVDVQISNGNKQMVIYFSGYPWPSFAYTQSFVADNNNLIVYMYPFSKV”: the “soluble on expression in E. coli” value is recorded as “not soluble”.
Under “MSLKKWFTILTFVLTAFLVTRTAIAETSPYVLMQQAADKLFSDIQANQSKIKQDPNYLRTIVRNDLLPYVNLEYAGSKVLGSYYKSTSAEQREKFFKTFGELIEQKYAQALTNYSNQKIQIESEKELGDNNFINIRVNIIQANGVAPILLYFKWRKGNKSGEWKVYDMVGAGVSMLEDTIKNWVGILNKQGIDTLITKMQQSASQPIIFNQEGGSHHHHHH” stands “soluble”.
Regarding “VGKEKAEVELLQVDADLQAEIVGKYNADLQKAVQIEEKKAREIATEAVKEHVTAEYEERYAEHEEHDRIMRDVAEILEQMEHAEVRRLITEDKVRPDGRRVDEIRP”, the “soluble on expression in E. coli” value was “not soluble”.
Under “MGSDKIHHHHHHMLKLKKILADLHVEQAELAEQMAYSQATISQLVNHSVWPKRAARWGLRERILKFLKERGANDDQVATAFEEWTPTRGNASESGSHTPTGGTEDEAMSIRKQILHPNTRRHFKLPGDPFEEVASAEEFYQNEHIRFTRAAMLDAAKRGGFLAVVGESGSGKTTMRRDLQERIERESIQVQVIRPYVVAMEDNDDKGKTLKATHIAEAIMAAVAPHEVLKTSSEARFRQVEKALKESYRTGMRHVVLIEEAHAMPLATLRHLKRFIELEDGFTRLLSVILIGQTELAIKLNPKNATVREVVQRCELITLPPLGQYLEDYLKFRFARLGVQLDQMVTLDGVQAIRSRLQPEAPRGHEERSFLYPLAVHNLLTAAMNLAAENGAPAVSADIVMEAKWN” stands “not soluble”.
Under “MGVFNYEIETTSVIPAARLFKAFILDGDNLVPKVAPQAISSVENIEGNGGPGTIKKINFPEGFPFKYVKDRVDEVDHTNFKYNYSVIEGGPVGDTLEKISNEIKIVATPDGGCVLKISNKYHTKGNHEVKAEQVKASKEMGETLLRAVESYLLAHSDAYN” stands “soluble”.
Under “MERVNHLLQRLLGNQRFKQRYEQMKRYILEHPDVQPFLRAHERQLSADAVDRSLMKLYEFIEQHGNCRQCPGLERCNNMLPGYHPNLVVNGGRIDVEYDRCPKKVQHDERKRQESLIQSMFMPREILRASLSDVDLNDDGRIKAIRFAERFVAEYEPGKKMKGLYLHGSFGVGKTYLLAAIANELAKRNVSSLIVYVPELFREIKHSLQDQTMNEKLDYIKKVPVLMLDDLGAEAMSSWVRDDVFGPILQYRMFENLPTFFTSNFDMQQLAHHLTYSQRGEEEKVKAARIMERIRYLAYPIEITGPNRREQNI” stands “not soluble”; under “MQPNDITFYQRFEADILAGHKTISIRDDSESHFKAGDILRVGRFEDNQYFCNIEVLSVSPITLDELTQPHAKQENMGLDELKEVIRGIYPNEIIFWVIQFSLKEYFNEEKCVREIIITDRKFN”, “soluble”.
With “MTTLKLFDIEHAWGLPRKVSPRFGARLILRGLHLDYLHDRASFVGEFPPAIKQQFVEAFPAMVKQLERLVATGEIDTTEQHCVSIEHAGFTCEADTLGSHGYLYIAIYQTKAKPLTTSNLTITR”, the “soluble on expression in E. coli” value is recorded as “not soluble”.
Under “MYPHIHRYKFESKNTNRHNHKIIGYTDNMIGIEAFHIHAYYGISSYNGHTHYFSGFTGLPIKTENGHIHRIEGILESASDHEHVYRNYTDENIEYISHSILKHAYV” stands “not soluble”; under “MGSDKIHHHHHHMNRLGKALPPLASLMPFEAAARLESFSRAADELHLTQAAISRQIRALEDDLGVALFERRNRGVFLTAAGREFGRTVSAALEGIAAQANALRQEVHDGVVVLFCQLCEAFYWVMPRLASLNRRHPELEVRLVTSTRPVVEHHDYFDVALQTSGRPSGSHALAFTASDEIFPICSPGYLAAQPRPITLASLPEHCLLHHEADPPDWFEWDSWLRAMGNFAPALGNGMVFDSYPLVLQAALAGHGIALGWRRSAEHLIQSGQLVRPLSMSLPLDNALSVYTRHGAQPRAETLALLDWLQREFRRDDQTTPA”, “not soluble”.
Under “MYLQDRSPYMENSGSSNDRNSGKTEYQLTLIGALKKEIEIARRLDPEKLAAEIKKTGFSCQNCGKCCKRAFGDNRVVLTPQEIEKIQKYTDLSKLEVAGPLIPDISCPEEAGEGEEDRVAENSSIMPEIDEKKTSEPFRTPELLKEDIDPDGNIHAYGWMLRRKRNGDCVFLEKDTNRCRIYPVRPMLCSTYPFYIEGLKLYTCECEGLGVHISAEESRKLAGSLLSRYVSELEDTLAMYEKYEDFERTEKGHEIAKNNLEKGTCIYIVHDSRGITKIIDLEHHHHHH” stands “soluble”.
With “GPHMDAATLTYDTLRFAEFEDFPETSEPVWILGRKYSIFTEKDEILSDVASRLWFTYRKNFPAIGGTGPTSDTGWGCMLRCGQMIFAQALVCRHLGRDWRWTQRKRQPDSYFSVLNAFIDRKDSYYSIHQIAQMGVGEGKSIGQWYGPNTVAQVLKKLAVFDTWSSLAVHIAMDNTVVMEEIRRLCRTSVPCAGATAFPADSDRHCNGFPAGAEVTNRPSPWRPLVLLIPLRLGLTDINEAYVETLKHCFMMPQSLGVIGGKPNSAHYFIGYVGEELIYLDPHTTQPAVEPTDGCFIPDESFHCQHPPCRMSIAELDPSIAVGFFCKTEDDFNDWCQQVKKLSLLGGALPMFELVEQQPSHLACPDVLNLSLDSSDVERLERFFDSEDEDFEILSL”, the “soluble on expression in E. coli” value is listed as “soluble”.
Under “MAHHHHHHMSTRKEPPKVLKGAAYTECSPISDVSHHKASASKAFLENHYRGMLRDTRSGNTARPVGPRPREPCVDDFVLVKRIGKGAFGEVYLCYKKYDNDKQLYALKRMRKTDMIRKKQISHVRSEKDVMAEAASTNPWVVKLYLSFQDEQYLYMVMEYMPGGDMISWLCIKQRFDVESTRFYIAELCAAVASVHDMFFVHRDIKPDNILLDAKGHIKLTDFGLSKRFAKVGEELLDLEEGNDALCSSNSSANLSNTCGSTCQGPNSVPVVSPHNPHSPTANYNSLTPAGSHASAHPQARRIFESIVGSPGYIAPEILLRQRYGVNCDWWSVGVIMYEMLYGIPPFFSSDTSSTCHKITHWREYLTYPSDRGVPPEATDLLRRLMCDQRDRLDFQGVKEHPFFNDIDWERLRETPPAFVPELSDPLDTHYFPEVEDNTPQQHHQRPEERNAVREVDPRGVIFADYKFNLKR” stands “soluble”; under “MSLYSENDISNSIKNGILYLEDPVNHEWYPHYFVLTSSKIYYSEETSSDQGNEDEEEPKEVSSSTELHSNEKWFHGKLGAGRDGRHIAERLLTEYCIETGAPDGSFLVRESETFVGDYTLSFWRNGKVQHCRIHSRQDAGTPKFFLTDNLVFDSLYDLITHYQQVPLRCNEFEMRLSEPVPQTNAHESKEWYHASLTRAQAEHMLMRVPRDGAFLVRKRNEPNSYAISFRAEGKIKHCRVQQEGQTVMLGNSEFDSLVDLISYYEKHPLYRKMKLRYPINEEALEKIGTAEPDYGALYEGRNPGFYVEANPMPTFKCAVKALFDYKAQREDELTFIKSAIIQNVEKQEGGWWRGDYGGKKQLWFPSNYVEEMVNEGHHHHHH”, “soluble”.
On to “GPLGSCSSPQVEIPTTYSPEKIAQLQVYVNPIAVARDGMEKRLQGLIADQNWVDTQTYIHGPLGQLRRDMLGLASSLLPKDQDKAKTLAKEVFGHLERLDAAAKDRNGSQAKIQYQEALADFDSFLNLLPQAS”, for which the “soluble on expression in E. coli” value is listed as “soluble”.
Under “MSLTIGFIFDLDGVITDTAKFHYQAWKALADSLGIPIDETFNETLKGISRMDSLDRILVHGHRENAFTPAEKEALAQQKNDHYVQLLEQLTTEDVLPGVVPLLQQAQARHIPCAVASASKNAPLILEKLGVRAYFATIVDPDSLSKGKPDPEIFLAAADSIGVLPQNAIGFEDAQSGIDGLKAAGIYAVGLSASQPLIGADMQVSEMTELSVDALLNREGHHHHHH” stands “soluble”; under “MTVDPASHITIPEADLARLRHCNHHDPHGFYGWHETEAGSVIRTRQVGATQVNLLIDDTSHVMTPIGDDIFAIDLGHRERADYRLEVTWPDQEPQVKADPYYFLPTVG”, “not soluble”.
In the case of “MTTSAMTAPDTRRQLQHVETLRRFLRGDSCFVHDLRGMMDYHDGLSRRQQRAFCRASRVLTDPEPIQSEAEGENKQFTEHTHKVVSFFIKSVFVFPYLVLPNCCQVSVDRSRVPETGGRWLLEHHHHHH”, the “soluble on expression in E. coli” value is recorded as “not soluble”.

(Values after the DeepSol protein solubility set.)
